Patent publication US20190330277A1

Target: bRSV ATue51908 postF (bovine respiratory syncytial virus, strain ATue51908), P22167
Assay: biolayer interferometry (Octet), variant on Ni-NTA tip, Fab in solution
Details: remark: other sources report otherwise

B1: MPE8 Fab (Fab, V domains shown)
VH: EVQLVESGGGLVKPGGSLRLSCAASGFTFSSYSMNWVRQAPGKGLEWVSSISASSSYSDYADSAKGRFTISRDNAKTSLFLQMNSLRAEDTAIYFCARARATGYSSITPYFDIWGQGTLVTVSS
VL: QSVVTQTPSVSGAPGQRVTISCTGSSSNIGAGYDVHWYQQLPGTAPKLLIYDNNNRPSGVPDRFSASKSGTSASLAITGLQAEDEADYYCQSYDRNLSGVFGTGTKVTVL
How did the Kd turn out when B1 was run?
The Kd was over 1000 nM.
